Results published in PMC7817833.

How the values were obtained:
[1] = molecular target: 14-3-3γ (UniProt P61981); test: co-immunoprecipitation, western blot; conditions: reference: wild-type ENDOG; sites T128,S288
[2] = molecular target: 14-3-3γ (UniProt P61981); test: co-immunoprecipitation of Myc-ENDOG, western blot; conditions: reference: Myc-ENDOG wild type; sites T128,S288

binding against the reference [1]	binding against the reference [2]	Substance
weaker	–	ENDOG (Endonuclease G) (from UniProt Q14249) T128A/S288A (AA)
–	weaker	ENDOG (Endonuclease G) (from UniProt Q14249) Myc-ENDOG-AA (T128A/S288A)
